Columns and labels:
human OX40 on cells [1] = molecular target: T1, human OX40 on cells (human, UniProt P43489 29-277); assay: flow cytometry on OX40+ cells (activated human PBMC)
T1 construct: also called CD134; OX40+ Cells
T1 sequence: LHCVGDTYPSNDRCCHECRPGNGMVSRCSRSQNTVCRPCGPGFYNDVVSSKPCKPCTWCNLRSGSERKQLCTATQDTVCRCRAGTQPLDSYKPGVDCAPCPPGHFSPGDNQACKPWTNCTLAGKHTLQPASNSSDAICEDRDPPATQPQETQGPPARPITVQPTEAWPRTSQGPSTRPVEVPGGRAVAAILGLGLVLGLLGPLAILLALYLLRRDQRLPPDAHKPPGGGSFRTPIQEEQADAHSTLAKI
Experimental: (§1) For labeling, cells were harvested, washed with pre-warmed (37° C.) DPBS and adjusted to a cell density of 1×10⁷ cells/mL in DPBS. eFluor670 cell proliferation dye (eBioscience, Cat.-No. 65-0840-85) was added to the suspension of naïve human PBMC at a final concentration of […] and a final cell density of 0.5×10⁷ cells/mL in DPBS. Cells were then incubated for 10 min at room temperature in the dark. To stop the labeling reaction, 4 mL heat inactivated FBS was added and cells were washed three times with T cell medium. A 2:1 mixture of 1×10⁵ resting eFluor670 labeled human PBMC and 0.5×10⁵ unlabeled activated human PBMC were then added to each well of round-bottomed suspension cell 96-well plates (Greiner bio-one, cellstar, Cat. No. 650185).
(§2) Cells were stained for 120 minutes at 4° C. in the dark in 50 μL/well 4° C. FACS buffer containing different amounts of the indicated antigen binding molecules. After three washes with 4° C. FACS buffer, cells were stained for 45 minutes at 4° C. in the dark in 25 μL/well 4° C. FACS buffer containing a mixture of fluorescently labeled anti-human CD4 (clone RPA-T4, mouse IgG1 k, BioLegend, Cat.-No. 300532), anti-human CD8 (clone RPa-T8, mouse IgGlk, BioLegend, Cat.-No. 3010441) and Fluorescein isothiocyanate (FITC)-conjugated AffiniPure anti-human IgG Fcγ-fragment-specific goat IgG F(ab′)₂ fragment (Jackson ImmunoResearch, Cat.-No. 109-096-098).
Cells were then resuspended in […] FACS-buffer containing 0.2 μg/mL DAPI (Santa Cruz Biotec, Cat. No. Sc-3598) and acquired the same day using 5-laser LSR-Fortessa (BD Bioscience with DIVA software).

[2] = molecular target: T2, human OX40 Fc(kih), monomeric Fc-linked human OX40 antigen ECD (human, UniProt P0DOX5 223-449 = IgG part); assay: SPR (Biacore T200, 25 °C): bispecific held on immobilised human TnC; human OX40 Fc(kih) at 250 nM injected for 90 s as analyte 2
T2 construct: Heterodimer of one OX40 ECD (aa 29-214)-AcTEV-Fc knob-Avi chain and one Fc hole chain; Biotinylated at the Avi tag for phage selection and ELISA; also called recombinant OX40 Fc (kih) receptor; biotinylated human OX40
Experimental: (§3) All SPR experiments were performed on a Biacore T200 at 25° C. with HBS-EP as running buffer (0.01 M HEPES pH 7.4, 0.15 M NaCl, 3 mM EDTA, 0.005% Surfactant P20, Biacore, Freiburg/Germany).
Biotinylated human TnC was directly coupled to a flow cell of a streptavidin (SA) sensor chip. Immobilization levels up to 1000 resonance units (RU) were used.
Bulk refractive index differences were corrected for by subtracting the response obtained in a reference flow cell, where no protein was immobilized.

[3] = molecular target: T3, human TnC with C-terminal Avi- and His-tags (human, UniProt P24821 984-1798, biotinylated at the C-terminal Avi-tag); assay: SPR Biacore T200, biotinylated TnC on SA chip, bispecific as analyte, 1:1 fit, apparent KD (bivalent binding)
T3 construct: also called huTnC; biotinylated human TnC
T3 sequence: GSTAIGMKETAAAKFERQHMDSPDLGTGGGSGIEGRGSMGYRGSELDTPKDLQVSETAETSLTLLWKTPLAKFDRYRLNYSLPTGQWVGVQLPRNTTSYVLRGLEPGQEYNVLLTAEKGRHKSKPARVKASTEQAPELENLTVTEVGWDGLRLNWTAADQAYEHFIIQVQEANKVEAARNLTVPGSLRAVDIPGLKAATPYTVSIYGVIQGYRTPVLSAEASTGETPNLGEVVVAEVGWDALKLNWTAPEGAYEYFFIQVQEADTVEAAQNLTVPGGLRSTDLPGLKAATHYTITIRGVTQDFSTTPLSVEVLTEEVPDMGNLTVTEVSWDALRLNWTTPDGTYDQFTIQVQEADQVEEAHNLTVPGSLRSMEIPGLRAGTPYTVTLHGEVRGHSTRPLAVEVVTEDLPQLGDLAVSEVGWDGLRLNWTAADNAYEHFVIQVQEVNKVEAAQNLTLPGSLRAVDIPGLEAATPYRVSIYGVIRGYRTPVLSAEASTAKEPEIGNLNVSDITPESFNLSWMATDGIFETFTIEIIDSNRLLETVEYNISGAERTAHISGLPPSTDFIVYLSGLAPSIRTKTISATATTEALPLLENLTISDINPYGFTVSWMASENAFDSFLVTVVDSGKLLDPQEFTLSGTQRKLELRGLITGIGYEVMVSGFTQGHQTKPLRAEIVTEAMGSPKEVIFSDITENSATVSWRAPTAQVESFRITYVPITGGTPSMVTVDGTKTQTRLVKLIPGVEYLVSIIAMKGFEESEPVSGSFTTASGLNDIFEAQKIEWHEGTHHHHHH
Experimental: as §3, with “The capacity of the bispecific constructs to bind human, murine and cynomolgus TnC was analysed by surface plasmon resonance (SPR). All” for “All”
Biotinylated human, murine or cynomolgus TnC molecules were immobilised on a SA chip to reach an immobilization level of 10 resonance units (RU).
Following immobilisation, the bispecific molecules or control molecules were immediately passed over the chip surface at concentrations ranging from 0.05-50 nM, at a flow rate of 30 μL/minute for 120 seconds and a dissociation phase of 180 seconds. The surface was regenerated using 10 mM glycine pH2.1. Bulk refractive index differences were corrected for by subtracting the response obtained in a reference flow cell, where no TnC was immobilized. Affinity/Avidity was determined under these experimental conditions using the Langmuir 1:1 curve fitting. For bivalent binding the same 1:1 fitting was used leading to an apparent KD value.

human TnC on cells [4] = molecular target: T4, human TnC on cells (human, UniProt P24821 23-2201); assay: flow cytometry on CT26huTnC cells
T4 construct: Endogenous on U87-MG cells (low or intermediate level) and stably transfected in CT26 cells (CT26huTnC, high level); also called cell surface human TnC; TnC on U87-MG cells

human TnC on cells [5] = molecular target: T4, human TnC on cells; assay: flow cytometry on U87-MG cells
Experimental: Cells were then stained for 60 to 120 minutes at 4° C. in the dark in 50 4/well 4° C.
For discrimination of live and dead cells two methods were used. […] Alternatively, cells were washed once with DPBS and were incubated for 15 minutes at dark/4° C. at a cell concentration of 1×10⁶ cell/mL in DPBS containing Zombie Aqua™ Viability Dye [1:800 dilution]. Cells were subsequently washed once with DPBS to remove excess dye before primary antigen binding molecules were added to the cells and the cells were incubated as described above.

human OX40 on cells [6] = molecular target: T1, human OX40 on cells; assay: flow cytometry on activated human PBMC, gated on CD4+ T cells; FITC anti-human IgG secondary; MFI baseline corrected
Experimental: as §1
as §2, with “109-096-098). […]” for “109-096-098).”

[7] = molecular target: T5, GST huTnC fn5 A1234 BC fn6 B (human, UniProt P24821 984-1798, biotinylated at the C-terminal Avi-tag); assay: SPR ProteOn XPR36, biotinylated antigen captured on NLC chip, purified Fab as analyte, 1:1 Langmuir
T5 construct: also called Human GST-fused TnC fn5 A1234 BC fn6
T5 sequence: T3 sequence
Experimental: (§4) Immobilization of antigens (ligand): Recombinant antigens were diluted with PBST (10 mM phosphate, 150 mM sodium chloride pH 7.4, 0.005% Tween 20) to 10 μg/ml, then injected at 30 μl/minute in vertical orientation. Injection of analytes: For ‘one-shot kinetics’ measurements, injection direction was changed to horizontal orientation, two-fold dilution series of purified Fab were injected simultaneously along separate channels 1-5, with association times of 200 s, and dissociation times of 240 s, respectively. Buffer (PBST) was injected along the sixth channel to provide an “in-line” blank for referencing. Association rate constants (kₒₙ) and dissociation rate constants (koff) were calculated using a simple one-to-one Langmuir binding model in ProteOn Manager v3.1 software by simultaneously fitting the association and dissociation sensorgrams. The equilibrium dissociation constant (KD) was calculated as the ratio koff/kₒₙ.

[8] = molecular target: T6, GST huTnC fn5 mu A124 BC hu fn6 B (human fn5 and fn6, murine A124 BC); assay: as above
T6 chain: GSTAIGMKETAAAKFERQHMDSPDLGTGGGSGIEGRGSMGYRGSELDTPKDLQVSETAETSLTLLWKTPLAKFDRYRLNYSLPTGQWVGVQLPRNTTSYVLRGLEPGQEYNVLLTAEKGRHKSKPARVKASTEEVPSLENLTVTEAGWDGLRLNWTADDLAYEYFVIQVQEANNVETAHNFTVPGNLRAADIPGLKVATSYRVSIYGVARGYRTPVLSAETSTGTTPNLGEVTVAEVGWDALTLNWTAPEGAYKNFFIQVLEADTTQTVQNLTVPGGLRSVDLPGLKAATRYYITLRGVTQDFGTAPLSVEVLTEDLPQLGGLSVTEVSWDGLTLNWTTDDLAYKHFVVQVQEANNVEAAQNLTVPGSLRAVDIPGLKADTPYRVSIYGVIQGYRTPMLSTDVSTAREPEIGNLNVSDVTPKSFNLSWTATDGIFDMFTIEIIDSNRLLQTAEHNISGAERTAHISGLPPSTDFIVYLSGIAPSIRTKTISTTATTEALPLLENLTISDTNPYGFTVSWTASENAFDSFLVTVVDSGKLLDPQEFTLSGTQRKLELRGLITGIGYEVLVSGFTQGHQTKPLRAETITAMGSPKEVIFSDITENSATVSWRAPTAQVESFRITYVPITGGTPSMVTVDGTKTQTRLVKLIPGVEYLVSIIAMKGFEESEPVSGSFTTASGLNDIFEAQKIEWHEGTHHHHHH
Experimental: as §4

GST TnC hu fn5 B-C fn6 B = molecular target: T7, GST TnC hu fn5 B-C fn6 B (human, biotinylated at the C-terminal Avi-tag); assay: as above
T7 chain: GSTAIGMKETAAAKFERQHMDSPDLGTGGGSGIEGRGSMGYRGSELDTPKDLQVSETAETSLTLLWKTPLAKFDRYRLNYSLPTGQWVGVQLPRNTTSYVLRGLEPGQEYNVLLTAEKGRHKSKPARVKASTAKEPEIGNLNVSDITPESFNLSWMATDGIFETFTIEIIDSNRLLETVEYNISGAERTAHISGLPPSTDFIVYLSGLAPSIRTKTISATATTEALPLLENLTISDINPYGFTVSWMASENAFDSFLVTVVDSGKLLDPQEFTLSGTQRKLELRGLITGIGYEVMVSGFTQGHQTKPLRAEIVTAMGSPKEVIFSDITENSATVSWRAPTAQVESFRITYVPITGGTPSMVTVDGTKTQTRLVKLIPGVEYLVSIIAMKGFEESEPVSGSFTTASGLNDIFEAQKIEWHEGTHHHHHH
Experimental: as §4

T4 sequence (P24821 23-2201 limits assumed): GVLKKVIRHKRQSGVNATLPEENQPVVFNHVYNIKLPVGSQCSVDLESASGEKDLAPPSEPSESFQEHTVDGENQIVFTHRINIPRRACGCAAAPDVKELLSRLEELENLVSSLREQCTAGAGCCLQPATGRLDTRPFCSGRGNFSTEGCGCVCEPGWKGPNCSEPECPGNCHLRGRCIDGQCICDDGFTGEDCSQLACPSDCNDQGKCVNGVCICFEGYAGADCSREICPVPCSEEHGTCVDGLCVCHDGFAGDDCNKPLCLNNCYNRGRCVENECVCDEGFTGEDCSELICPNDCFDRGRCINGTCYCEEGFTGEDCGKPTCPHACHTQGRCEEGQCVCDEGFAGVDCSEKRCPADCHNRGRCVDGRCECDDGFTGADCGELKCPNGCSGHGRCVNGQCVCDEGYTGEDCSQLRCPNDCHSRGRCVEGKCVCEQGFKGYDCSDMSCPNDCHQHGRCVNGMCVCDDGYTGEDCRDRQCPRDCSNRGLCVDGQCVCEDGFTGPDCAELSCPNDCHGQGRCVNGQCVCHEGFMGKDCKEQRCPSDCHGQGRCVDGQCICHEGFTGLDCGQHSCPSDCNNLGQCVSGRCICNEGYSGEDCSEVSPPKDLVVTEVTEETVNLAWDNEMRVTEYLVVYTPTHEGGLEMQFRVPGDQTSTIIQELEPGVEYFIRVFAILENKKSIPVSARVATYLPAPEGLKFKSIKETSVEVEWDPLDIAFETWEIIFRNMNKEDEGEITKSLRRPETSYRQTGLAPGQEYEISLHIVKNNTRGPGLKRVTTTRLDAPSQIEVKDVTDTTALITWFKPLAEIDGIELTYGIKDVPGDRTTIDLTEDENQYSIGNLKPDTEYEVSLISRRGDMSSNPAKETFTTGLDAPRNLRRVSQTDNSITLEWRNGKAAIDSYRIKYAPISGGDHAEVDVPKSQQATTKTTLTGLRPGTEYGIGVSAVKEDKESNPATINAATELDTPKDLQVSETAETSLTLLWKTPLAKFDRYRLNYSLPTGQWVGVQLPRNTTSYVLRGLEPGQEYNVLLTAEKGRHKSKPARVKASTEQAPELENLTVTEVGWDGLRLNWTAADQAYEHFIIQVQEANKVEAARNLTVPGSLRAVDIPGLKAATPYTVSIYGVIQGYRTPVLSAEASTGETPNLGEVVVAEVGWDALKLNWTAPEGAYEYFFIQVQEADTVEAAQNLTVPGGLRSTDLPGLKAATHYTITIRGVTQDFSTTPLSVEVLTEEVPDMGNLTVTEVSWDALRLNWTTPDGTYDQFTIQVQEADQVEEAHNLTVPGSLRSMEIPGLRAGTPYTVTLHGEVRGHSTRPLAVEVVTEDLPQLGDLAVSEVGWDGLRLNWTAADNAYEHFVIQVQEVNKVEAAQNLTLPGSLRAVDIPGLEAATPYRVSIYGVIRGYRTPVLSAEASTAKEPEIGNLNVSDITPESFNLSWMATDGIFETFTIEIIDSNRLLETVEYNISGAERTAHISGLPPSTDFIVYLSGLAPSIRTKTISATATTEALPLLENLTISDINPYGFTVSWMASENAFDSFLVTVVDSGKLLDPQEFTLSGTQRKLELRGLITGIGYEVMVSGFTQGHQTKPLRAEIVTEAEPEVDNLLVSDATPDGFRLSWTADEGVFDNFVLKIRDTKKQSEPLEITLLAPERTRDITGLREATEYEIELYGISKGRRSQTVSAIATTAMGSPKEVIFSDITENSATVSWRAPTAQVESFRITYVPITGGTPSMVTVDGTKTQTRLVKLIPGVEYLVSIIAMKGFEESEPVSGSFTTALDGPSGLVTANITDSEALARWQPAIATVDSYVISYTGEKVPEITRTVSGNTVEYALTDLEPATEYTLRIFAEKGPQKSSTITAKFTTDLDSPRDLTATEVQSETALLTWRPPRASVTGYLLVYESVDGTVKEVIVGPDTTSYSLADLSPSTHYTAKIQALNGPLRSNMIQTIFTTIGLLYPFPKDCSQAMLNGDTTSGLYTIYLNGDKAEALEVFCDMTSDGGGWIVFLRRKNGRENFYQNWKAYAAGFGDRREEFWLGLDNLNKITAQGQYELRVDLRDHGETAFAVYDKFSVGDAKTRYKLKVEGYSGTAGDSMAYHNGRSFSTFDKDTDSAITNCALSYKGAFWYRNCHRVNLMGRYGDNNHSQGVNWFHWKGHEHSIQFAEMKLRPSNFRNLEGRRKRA

B1: 49B4/TnC 11C7 P329GLALA 2 + 2 (ID7215) (bispecific antibody, human IgG1, kappa, L234A L235A)
heavy: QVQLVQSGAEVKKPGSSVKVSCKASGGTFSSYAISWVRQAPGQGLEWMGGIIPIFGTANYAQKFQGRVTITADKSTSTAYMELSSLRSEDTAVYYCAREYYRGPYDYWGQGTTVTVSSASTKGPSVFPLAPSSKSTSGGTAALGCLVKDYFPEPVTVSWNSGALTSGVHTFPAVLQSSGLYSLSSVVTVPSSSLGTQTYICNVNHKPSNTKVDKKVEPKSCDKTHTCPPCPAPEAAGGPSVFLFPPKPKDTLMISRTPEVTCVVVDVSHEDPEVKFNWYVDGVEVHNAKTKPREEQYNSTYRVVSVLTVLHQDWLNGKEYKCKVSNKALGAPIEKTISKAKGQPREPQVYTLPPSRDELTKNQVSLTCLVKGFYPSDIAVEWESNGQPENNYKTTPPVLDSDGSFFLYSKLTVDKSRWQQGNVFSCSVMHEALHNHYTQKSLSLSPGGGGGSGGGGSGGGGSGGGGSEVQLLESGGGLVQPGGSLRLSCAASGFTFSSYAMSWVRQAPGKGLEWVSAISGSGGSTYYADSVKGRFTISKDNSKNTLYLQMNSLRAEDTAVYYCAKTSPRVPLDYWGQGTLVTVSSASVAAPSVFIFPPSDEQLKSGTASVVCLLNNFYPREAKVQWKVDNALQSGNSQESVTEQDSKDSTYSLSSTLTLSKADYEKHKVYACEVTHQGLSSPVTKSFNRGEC
light 1: DIQMTQSPSTLSASVGDRVTITCRASQSISSWLAWYQQKPGKAPKLLIYDASSLESGVPSRFSGSGSGTEFTLTISSLQPDDFATYYCQQYSSQPYTFGQGTKVEIKRTVAAPSVFIFPPSDEQLKSGTASVVCLLNNFYPREAKVQWKVDNALQSGNSQESVTEQDSKDSTYSLSSTLTLSKADYEKHKVYACEVTHQGLSSPVTKSFNRGEC
light 2: SSELTQDPAVSVALGQTVRVTCQGDSLRSYYASWYQQKPGQAPVLVIYGKNNRPSGIPDRFSGSSSGNTASLTITGAQAEDEADYYCNSINSTRNEVFGGGTKLTVLSSASTKGPSVFPLAPSSKSTSGGTAALGCLVKDYFPEPVTVSWNSGALTSGVHTFPAVLQSSGLYSLSSVVTVPSSSLGTQTYICNVNHKPSNTKVDKKVEPKSCD
notes: huIgG1 P329G LALA; 49B4 VHCH1-Fc-(G4S)4-11C7 VHCL heavy chain, 49B4 VLCL light chain, 11C7 VLCH1 crossed light chain; also called 2 + 2 (49B4/11C7); 49B4/11C7 2 + 2
EC50 (human OX40 on cells [1]): 4.22 nM | binding result [2]: binds | Kd [3]: 5.85 nM

B2: parental bivalent anti-TnC antibody clone18D4 (antibody, V domains shown)
VH: QVQLVQSGAEVKKPGSSVKVSCKASGGTFSSYAISWVRQAPGQGLEWMGGIIPIFGTANYAQKFQGRVTITADKSTSTAYMELSSLRSEDTAVYYCAKGNFYGGLDYWGQGTTVTVSS
VL: DIQMTQSPSTLSASVGDRVTITCRASQSISSWLAWYQQKPGKAPKLLIYDASSLESGVPSRFSGSGSGTEFTLTISSLQPDDFATYYCQQNKKFPSGTFGQGTKVEIK
notes: Human IgG1; also called αTnC (18D4); anti-TnC 18D4 IgG
EC50 (human TnC on cells [4]): 2.69 nM | EC50 (human TnC on cells [5]): 8.21 nM | binding result (human OX40 on cells [6]): no binding (tested: 100 nM)

B3: anti-TnC clone 11C7, purified Fab (Fab, V domains shown)
VH: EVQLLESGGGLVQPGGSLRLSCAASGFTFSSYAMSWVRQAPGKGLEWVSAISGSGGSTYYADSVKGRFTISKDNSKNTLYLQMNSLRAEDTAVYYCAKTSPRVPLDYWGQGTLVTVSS
VL: SSELTQDPAVSVALGQTVRVTCQGDSLRSYYASWYQQKPGQAPVLVIYGKNNRPSGIPDRFSGSSSGNTASLTITGAQAEDEADYYCNSINSTRNEVFGGGTKLTVL
Kd [7]: 2.3 nM | Kd [8]: 1.9 nM | Kd (GST TnC hu fn5 B-C fn6 B): 1 nM
